The supplement of paper PMC10567573

B1: C2CD2L (parent)
chain: LTLKVLRSSSCGDTELLGQATLPV

Variants of: B1
Assay: protein stability index of a GFP-peptide fusion (GPS, HEK-293T) (PSI 1-6); higher = more stable
Conditions: c terminus: a fixed tail appended
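Also: lentivirally expressed fusions sorted by FACS into six bins by GFP to DsRed ratio, PSI derived from sequencing read proportions per bin multiplied by bin number.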

| Variant | protein stability index |
| --- | --- |
| LTYKVLRSSSCGDTELLGQATLPV [L3Y] | 1.59 |
| LTTKVLRSSSCGDTELLGQATLPV [L3T] | 2.71 |
| LTWKVLRSSSCGDTELLGQATLPV [L3W] | 2.45 |
| LTLKVLRSSECGDTELLGQATLPV [S10E] | 1.75 |
| LTLKVLRSSFCGDTELLGQATLPV [S10F] | 2.93 |
| LTLKVLRSSACGDTELLGQATLPV [S10A] | 3.7 |
| LTLKVLRSSCCGDTELLGQATLPV [S10C] | 3.45 |
| LTLKVLRSSDCGDTELLGQATLPV [S10D] | 2 |
| LTLSVLRSSSCGDTELLGQATLPV [K4S] | 1.18 |
| LTLHVLRSSSCGDTELLGQATLPV [K4H] | 1.65 |
| LTLEVLRSSSCGDTELLGQATLPV [K4E] | 2.12 |
| LTLMVLRSSSCGDTELLGQATLPV [K4M] | 1.06 |
| LTLNVLRSSSCGDTELLGQATLPV [K4N] | 1.19 |
| LTLWVLRSSSCGDTELLGQATLPV [K4W] | 2.53 |
| LTLDVLRSSSCGDTELLGQATLPV [K4D] | 1.94 |
| LTLPVLRSSSCGDTELLGQATLPV [K4P] | 2.66 |
| LTLFVLRSSSCGDTELLGQATLPV [K4F] | 2.97 |
| LTLGVLRSSSCGDTELLGQATLPV [K4G] | 2.46 |
| LTLCVLRSSSCGDTELLGQATLPV [K4C] | 2.5 |
| LTLVVLRSSSCGDTELLGQATLPV [K4V] | 2.8 |
| LTLYVLRSSSCGDTELLGQATLPV [K4Y] | 3.27 |
| LTLKNLRSSSCGDTELLGQATLPV [V5N] | 2.26 |
| LTLKGLRSSSCGDTELLGQATLPV [V5G] | 2.52 |
| LTLKILRSSSCGDTELLGQATLPV [V5I] | 2.08 |

| Variant | protein stability index |
| --- | --- |
| LTLKCLRSSSCGDTELLGQATLPV [V5C] | 1.76 |
| LTLKTLRSSSCGDTELLGQATLPV [V5T] | 1.83 |
| LTLKRLRSSSCGDTELLGQATLPV [V5R] | 2.05 |
| LTLKQLRSSSCGDTELLGQATLPV [V5Q] | 2.3 |
| LTLKSLRSSSCGDTELLGQATLPV [V5S] | 2.11 |
| LTLKALRSSSCGDTELLGQATLPV [V5A] | 2.3 |
| LTLKMLRSSSCGDTELLGQATLPV [V5M] | 1.75 |
| LTLKPLRSSSCGDTELLGQATLPV [V5P] | 2.38 |
| LTLKHLRSSSCGDTELLGQATLPV [V5H] | 2.27 |
| LTLKFLRSSSCGDTELLGQATLPV [V5F] | 1.86 |
| LTLKKLRSSSCGDTELLGQATLPV [V5K] | 2.17 |
| LTLKELRSSSCGDTELLGQATLPV [V5E] | 2.82 |
| LTLKDLRSSSCGDTELLGQATLPV [V5D] | 2.97 |
| LTLKLLRSSSCGDTELLGQATLPV [V5L] | 2.75 |
| LTLKYLRSSSCGDTELLGQATLPV [V5Y] | 2.69 |
| LTLKVQRSSSCGDTELLGQATLPV [L6Q] | 2.59 |
| LTLKVTRSSSCGDTELLGQATLPV [L6T] | 1.26 |
| LTLKVARSSSCGDTELLGQATLPV [L6A] | 3.16 |
| LTLKVIRSSSCGDTELLGQATLPV [L6I] | 2.83 |
| LTLKVYRSSSCGDTELLGQATLPV [L6Y] | 3.33 |
| LTLKVCRSSSCGDTELLGQATLPV [L6C] | 1.69 |
| LTLKVERSSSCGDTELLGQATLPV [L6E] | 2.49 |
| LTLKVFRSSSCGDTELLGQATLPV [L6F] | 2.21 |
| LTLKVRRSSSCGDTELLGQATLPV [L6R] | 2.03 |

| Variant | protein stability index |
| --- | --- |
| LTLKVSRSSSCGDTELLGQATLPV [L6S] | 1.89 |
| LTLKVKRSSSCGDTELLGQATLPV [L6K] | 2.17 |
| LTLKVVRSSSCGDTELLGQATLPV [L6V] | 3.39 |
| LTLKVGRSSSCGDTELLGQATLPV [L6G] | 1.96 |
| LTLKVHRSSSCGDTELLGQATLPV [L6H] | 2.13 |
| LTLKVNRSSSCGDTELLGQATLPV [L6N] | 2.19 |
| LTLKVPRSSSCGDTELLGQATLPV [L6P] | 2.24 |
| LTLKVDRSSSCGDTELLGQATLPV [L6D] | 2.47 |
| LTLKVLRSMSCGDTELLGQATLPV [S9M] | 3.09 |
| LTLKVLRSWSCGDTELLGQATLPV [S9W] | 3.38 |
| LTLKVLRSISCGDTELLGQATLPV [S9I] | 2.11 |
| LTLKVLRSESCGDTELLGQATLPV [S9E] | 1.1 |
| LTLKVLRSLSCGDTELLGQATLPV [S9L] | 1.16 |
| LTLKVLRSDSCGDTELLGQATLPV [S9D] | 1.72 |
| LTLKVLRSPSCGDTELLGQATLPV [S9P] | 1.71 |
| LTLKVLRSVSCGDTELLGQATLPV [S9V] | 1.09 |
| LTLKVLRSHSCGDTELLGQATLPV [S9H] | 2.94 |
| LTLKVLRSRSCGDTELLGQATLPV [S9R] | 3.44 |
| LTLKVLRSASCGDTELLGQATLPV [S9A] | 1.95 |
| LTLKVLRSCSCGDTELLGQATLPV [S9C] | 1.76 |
| LTLKVLRSNSCGDTELLGQATLPV [S9N] | 1.82 |
| LTLKVLRSKSCGDTELLGQATLPV [S9K] | 1.4 |
| LTLKVLRSFSCGDTELLGQATLPV [S9F] | 2.54 |
| LTLKVLRSQSCGDTELLGQATLPV [S9Q] | 1.43 |

| Variant | protein stability index |
| --- | --- |
| LTLKVLLSSSCGDTELLGQATLPV [R7L] | 3.52 |
| LTLKVLESSSCGDTELLGQATLPV [R7E] | 1.96 |
| LTLKVLHSSSCGDTELLGQATLPV [R7H] | 2.61 |
| LTLKVLGSSSCGDTELLGQATLPV [R7G] | 1.37 |
| LTLKVLDSSSCGDTELLGQATLPV [R7D] | 2.02 |
| LTLKVLPSSSCGDTELLGQATLPV [R7P] | 2.08 |
| LTLKVLKSSSCGDTELLGQATLPV [R7K] | 3.05 |
| LTLKVLMSSSCGDTELLGQATLPV [R7M] | 2.32 |
| LTLKVLCSSSCGDTELLGQATLPV [R7C] | 3.71 |
| LTLKVLTSSSCGDTELLGQATLPV [R7T] | 2.88 |
| LTLKVLVSSSCGDTELLGQATLPV [R7V] | 1.85 |
| LTLKVLQSSSCGDTELLGQATLPV [R7Q] | 1.33 |
| LTLKVLSSSSCGDTELLGQATLPV [R7S] | 1.13 |
| LTLKVLNSSSCGDTELLGQATLPV [R7N] | 1.19 |
| LTLKVLASSSCGDTELLGQATLPV [R7A] | 1.19 |
| LTLKVLRWSSCGDTELLGQATLPV [S8W] | 4.16 |
| LTLKVLRESSCGDTELLGQATLPV [S8E] | 1.72 |
| LTLKVLRRSSCGDTELLGQATLPV [S8R] | 3.03 |
| LTLKVLRNSSCGDTELLGQATLPV [S8N] | 3.13 |
| LTLKVLRDSSCGDTELLGQATLPV [S8D] | 1.93 |
| LTLKVLRMSSCGDTELLGQATLPV [S8M] | 3.9 |
| LTLKVLRFSSCGDTELLGQATLPV [S8F] | 4.03 |
